Usually Kd stands for the concentration at which binding is half-saturated. Broadly, the koff is the first-order rate constant of dissociation. Broadly, the kon is the second-order rate constant of association.

The results in this text go back to publication PMC7234810.

In assay [1] the target is Human ST2-Fc chimera (human) (UniProt Q01638).
For assay [2], the target named is Mouse IL-33-TRAP-Fc (a fusion protein of ST2 and IL-1RAcP with an Fc tag) (mouse). Put plainly: SPR; BIAcore T200, single cycle kinetics, 25°C; mouse ST2-Fc (~200 RU) or mouse TRAP-Fc (~400 RU) captured on a Protein G chip; HpBARI injected in three-fold dilutions; 10 mM NaH2PO4 pH 7.5, 150 mM NaCl, 50 uM EDTA, 0.05% surfactant P20; 1:1 model. (In general: Surface plasmon resonance follows binding to a sensor surface in real time, without labels.)

Assay [3] has as its target Mouse ST2-Fc chimera (mouse) (UniProt P14719). The description is as above.

Mouse ST2-Fc chimera (mouse), sequence (P14719 27-332, change not shown): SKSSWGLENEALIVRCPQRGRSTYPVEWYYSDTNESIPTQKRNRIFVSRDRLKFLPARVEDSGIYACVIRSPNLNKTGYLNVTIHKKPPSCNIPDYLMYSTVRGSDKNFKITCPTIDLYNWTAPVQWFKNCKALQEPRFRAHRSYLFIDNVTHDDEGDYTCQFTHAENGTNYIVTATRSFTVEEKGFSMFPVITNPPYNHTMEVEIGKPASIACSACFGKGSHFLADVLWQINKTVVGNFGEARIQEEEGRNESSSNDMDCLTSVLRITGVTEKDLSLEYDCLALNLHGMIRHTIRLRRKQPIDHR
Human ST2-Fc chimera (human), sequence (Q01638 19-328, stated change not applied): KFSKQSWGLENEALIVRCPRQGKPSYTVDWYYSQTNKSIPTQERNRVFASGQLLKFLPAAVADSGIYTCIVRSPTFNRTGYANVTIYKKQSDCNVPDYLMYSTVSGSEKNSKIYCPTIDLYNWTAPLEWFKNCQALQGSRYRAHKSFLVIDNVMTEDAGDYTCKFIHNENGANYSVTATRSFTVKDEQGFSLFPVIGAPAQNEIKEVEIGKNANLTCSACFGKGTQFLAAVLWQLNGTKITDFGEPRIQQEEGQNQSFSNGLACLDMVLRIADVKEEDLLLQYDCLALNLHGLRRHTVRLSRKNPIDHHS

As for “H. polygyrus Binds Alarmin Receptor and Inhibits (HpBARI), N-terminal tagged (natural protein)”, in assay [1], the IC50 of inhibition of IL-33-induced IFN-γ production from human PBMCs (5 ng/ml IL-12 + 0.1 ng/ml oxidation resistant human IL-33, 44 hr, ELISA); blocks human IL-33 with human ST2 was above 1000 nM. Moreover, in assay [2], the Kd worked out at 0.17 nM, the koff is 0.00065 s⁻¹ and the kon came to 3.9e+06 M⁻¹ s⁻¹. In assay [3], this substance showed a Kd of 0.26 nM, a koff of 0.0011 s⁻¹ and an on-rate constant (kon) of 4e+06 M⁻¹ s⁻¹.
Substance “HpBARI expressed with C-terminal tags (natural protein)” displayed a fold change of the off-rate against the N-terminal tagged construct in assay [2] of 4 fold.
